Assay: label from the status in PepcDB records
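Note: failed if final PepcDB status was selected cloned or expressed and not failed if soluble or beyond.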

Sequence	protein production
MDELAGGGGGGQGMAAPPRPQQGPGGNLSLPPGANGAPGGGGPPAAEAAGPPAGPELSRPQQYTIPGILHYIQHEWARFEMERAHWEVERAELQARIAFLQGERKGQENLKKDLVRRIKMLEYALKQERAKYHKLKYGTELNQGDLKMPTFESEETKDVEAPPAPQNSQLTWKQGRQLLRQYLQEVGYTDTILDVRSQRVRSLLGLSNSEPNGSVEAKNLEQILNGGESPKQKGQEIKRPPGDVLETFNFLENADDSDEEENDMIEGIPEGKDKLRIHKHKIGNEGLAADLTDDPDTEEALKEFDFLVTAEDGEGAGEARSSGDGTEWDKDDLSPTAEVWDVDQGLISKLKEQYKKERKGKKGVKRVNRTNLCDMITDLGDDELPHIPSGIINQSRSASTRMADHEGARAEEAEPITFPSGGGKSFIMGSDDVLLSVLGLGDLADLTVTNDADYSYDLPANKDAFRKTWNPKYTLRSHFDGVRALAFHPVEPVLVTASEDHTLKLWNLQKTVPAKKSASLDVEPIYTFRAHIGPVLSLAISSNGEQCFSGGIDATIQWWNMPSPNVDPYDTYESNVLAGTLVAHTDAVWGLAYSGIKNQLLSCSADGTIRLWNPQEKLPCVCTYNGDKEHGIPTSVDFIGCDPAHMVTSFNTGSAVIYDLETSQSLVMLSSQVDSGLQSSNHINRVVSHPTLPVTITAHEDRHIKFFDNKTGKMIHSMVAHLDAVTSLAVDPNGIYLMSGSHDCSIRLWNLDSKTCVQEITAHRKKLDESIYDVAFHPSKAYIASAGADALAKVFV	failed
MDELLEKAKKVREAWDVLRNATTREKNKAIKKIAEKLDERRKEILEANRIDVEKARERGVKESLVDRLALNDKRIDEMIKACETVIGLKDPVGEVIDSWVREDGLRIARVRVPIGPIGIIYESRPNVTVETTILALKSGNTILLRGGSDALNSNKAIVSAIREALKETEIPESSVEFIENTDRSLVLEMIRLREYLSLVIPRGGYGLISFVRDNATVPVLETGVGNCHIFVDESADLKKAVPVIINAKTQRPGTCNAAEKLLVHEKIAKEFLPVIVEELRKHGVEVRGCEKTREIVPDVVPATEDDWPTEYLDLIIAIKVVKNVDEAIEHIKKYSTGHSESILTENYSNAKKFVSEIDAAAVYVNASTRFTDGGQFGFGAEIGISTQRFHARGPVGLRELTTYKFVVLGEYHVRE	not failed
MDERNVSKPAMRGHKLVLNNRTASLVTGVKDVLSFDLNEVLLETEQGMLMVKGTDLHVNRLSLEKGEVDLSGNIDSIAYSDVHAEQKQGENLFARLFR	failed
MDESAALRAFQDALRTQRPEFGQFFLARLLGLDISYPDGQCLIVFEPQDFLFNPQGSLHGGIIATVMDISMGHLLNHVQGAGLTLEMKTQYLKAVRQGTVYCRGEFLQRGRSVSFLKSTLTDAQGEPLAMATSTWKALSPLEHHHHHH	not failed
MDETVAEFIKRTILKIPMNELTTILKAWDFLSENQLQTVNFRQRKESVVQHLIHLCEEKRASISDAALLDIIYMQFHQHQKVWDVFQMSKGPGEDVDLFDMKQFKNSFKKILQRALKNVTVSFRETEENAVWIRIAWGTQYTKPNQYKPTYVVYYSQTPYAFTSSSMLRRNTPLLGQELEATGKIYLRQEEIILDITEMKKACN	failed
MDFDLRWLFIAASLGLCAWAGWQFVHRLARARLLGDVPTSRIRSAAQGFVELYGVLEEGPEGPLQAPLTGKPCLWWRYRIEVEEKRSGREKAWRTVDKGASESPFSLRDATDACLVDPRGAEVRPLTQQRWEAFREAPIDTLRLLESFGTLVGGERLYRYTEERLHAGEPLYALGEFRSSGGGRQGLDAERAQGAVIREWKGDFHGLLARFDSDGNGELDEREWNRVRLAARLEAEDRHRASSAAPTRHRLGKPGEAHPFILSSQGEDDLAVQLRRQAAGAALLCLGSALLAGWLFSRLF	failed
MDFDLWWLLAIPLVFGLGWVAARLDARQLLTEQASLPRSYFKGLNFLLNEQPDKAIDAFIEVARLDPETTELHFALGSLFRRRGETERAIRVHQNLVNRPDLPANERDHALYELGQDFLRAGLLDRAEESLRMLMEGVFAEPAKRVLLELYEVEKEWRKAIDAARELQTLQGQDYSVQIAQFCCELAQESLQRKDVSAAVEWLERALQENPKNVRATIQLGDVALGKGDTEGAIKRWRSIEQQNPAFLPLVAERLMKAYAQLGRAAEGLAWLRSKMDARLGPELLDVVYRYELDVHGIDDAVALMREQIRRQPSLMALTRLVEAEATRASEAVSHEAAAVAAPISDSALADPVEAGSNADIQRAQDLGAIRDLLQSRTRNLARYTCQECGFRARLFYWQCPGCNRWETYAPRRTEALGGSGGASM	failed
MDFDTIQIDYEKEETVMIGRAADKIFTRVFIFLIMTVYFWIYTVAGLVVLGIGPAFRTVTEMHMDKQWDYRLYHFKEGWQRFKRHFWQMNLHTWLFLGVGAVLAYNLYLSLSIHTLWIIFIQFIIVFALILDFSLAIFTVMLRSRYDVAFKDAIKLAIVQFFSNFTQLLTFIIGTIVLIVISLKWPGMILFLSPGIYMVGADRLSRRWYDKIDKMLGAV	failed
MDFECQFVCELKELAPVPALLIRTQTTMSELGSLFEAGYHDILQLLAGQGKSPSGPPFARYFGMSAGTFEVEFGFPVEGGVEGSGRVVTGLTPSGKAASSLYIGPYGEIEAVYDALMKWVDDNGFDLSGEAYEIYLDNPLEHHHHHH	failed
MDFKTVMQELEALGKERTKKIYISNGAHEPVFGVATGAMKPIAKKIKLNQELAEELYATGNYDAMYFAGIIADPKAMSESDFDRWIDGAYFYMLSDYVVAVTLSESNIAQDVADKWIASGDELKMSAGWSCYCWLLGNRKDNAFSESKISDMLEMVKDTIHHSPERTKSAMNNFLNTVAISYVPLHEKAVEIAKEVGIVEVKRDNKKSSLLNASESIQKELDRGRLGFKRKYVRC	not failed
MDFLGILCLLILATTLAGHFAHRAGIPAVIGEILVGVILGPALLNWVHLTTLVQTFSDIGVVVLMFIGGLESNLALLRKYLRPAIIVAIIGVIFPVVIMGLASRFFQFSWFESLFIGVIFSATSVSISVEVLKEFKVLDTKEGATILGAAVADDIIGVILLSIMIAMMGGQSGVAQTNLGIVLLEQVGFFIGVFIVIKWVAPYLMRLSDHLLMAASPTIMAIIICLALAWLAELVGLSGAIGAFFAGVAIAQTDYQHVVDVSIEPVGYTTFIPLFFVSVGLNMTFKGVWQSLPFIVVMTVLGVLTKLWGCGLGAKLNGFSRHSNYLVGAGMISRGEMALITAQIGFSAHLLSNDYYSDIILVIIVVTMIAPFVLKNAIHRAGQVTATHSIIEEH	failed
MDFLVAHFNLLRGLHILAVIAFMAGMLYLPRLFVYHTKATPGSQMDETFKVMERRLLRGIINPASIATAVFGLGLILADAQIRGWDFLLQPWMIAKLVALVGLYGFHGFLSASRKKFERGENVRSEKFWRMVNEIPFVLAIVIVMSVTTKYLNH	failed
MDFNDSAQAIILNVGGEKNINSLIHCSTRLRFTLNDFAKADLEKLKTVDGVLGAVIAGGQCQVIIGNDVVEMFDAVQALLGNSTQQNTARGPKQSWGKVVLDFIIGVFQPLVPAIAGGGILKAVLMLLAMFGWISDKSQTYQILNLVGGAPLYLLPILVAITTAQKLKVNPLVAVSTVGVLILPDLVAMLTKGTTLFGLHVTNVTYSSQVFPAILCVLFYALMERFFTKYSPKPIRIFFVPMMSMLITAPITLLFLGPLGYVVGEGFVSVILFLNTHLGWVATALLAGVLPFMVATGMHKPMIPYVVSTFSTVGKESLYLPASLAHNISESGTCFAITLRTKDTKLRAVALSAGISALFGITEPALYGVTLQHKRALISVITGGVIGGAYVGIAGLSGFTIVGPGLASLPMFVDKSNPANLIHALIGFGISFVVSFVIGLIIWKNDEEISSASDTGEATTTVVAEDLMAPVAGKILSLADVPDDVFSQGLIGQGIAVEPSEGSLIAPTDGTIEMVYETKHALGMRTDNGAELLFHIGLDTVQLNGKYFESHVQVGQHVQAGELLETFDVAKIKAAGYNPITMMVVTNQDSYTVAVDESNETLDNQSVMNIAKLGV	failed
MDFNPIDLILHLDTYLAMLVSNYGVWIYAILFLVIFCETGLVVTPFLPGDSLLFIAGAICATGGMDPWLLGGLLMVAAITGDSTNYVIGRTLGKRLFSNPDSKVFRRDYLDRTHEFYERHGGKTVTLARFLPIVRTFAPFVAGMAKMHYPRFVMFSVVGTVAWVGGLVTLGYFFGNVPFIKKNLSLLVIGIILLSLLPMILGFIRHRLQASAAKQAKAQSD	failed
MDFPCLWLGLLLPLVAALDFNYHRQEGMEAFLKTVAQNYSSVTHLHSIGKSVKGRNLWVLVVGRFPKEHRIGIPEFKYVANMHGDETVGRELLLHLIDYLVTSDGKDPEITNLINSTRIHIMPSMNPDGFEAVKKPDCYYSIGRENYNQYDLNRNFPDAFEYNNVSRQPETVAVMKWLKTETFVLSANLHGGALVASYPFDNGVQATGALYSRSLTPDDDVFQYLAHTYASRNPNMKKGDECKNKMNFPNGVTNGYSWYPLQGGMQDYNYIWAQCFEITLELSCCKYPREEKLPSFWNNNKASLIEYIKQVHLGVKGQVFDQNGNPLPNVIVEVQDRKHICPYRTNKYGEYYLLLLPGSYIINVTVPGHDPHITKVIIPEKSQNFSALKKDILLPFQGQLDSIPVSNPSCPMIPLYRNLPDHSAATKPSLFLFLVSLLHIFFK	not failed
MDGEILRDPTRRFVLQSGAAVGGGLLLSFTMSSEGQAAGDTKVNAYVRIASDGKVTIASKVPEVGQGIKTALPMLIAEELDVDWSAVTVEQAIADTKIYGRQVAGGSMATTLEYDGLRRVGATVRALLIAAAAARWNVPADSLKTEPGFVVDAAGKRRASYGELAQAAAALTPPDPKSLTLKDPKAFRIIGKSHKSQNLDAIVTGQPTYGIDVRLPGMLFAAFAKAPVYGAKVASVDLALAKAVKGVRDAFIIEGGTNLQGLLPGVAVVADSWWAARKGREALQIQWAEHPTASQSTVGFAAKAAELAAAPPHRNLHNDGDVEAALKGAAKTVSAAYSYPFIAHAALEPQNCTAHVKDGKVEIWAPTQNPESGRALVARALNVDPSAITIHLIRGGGGFGRRLMNDYMVEAAAIAAKVNAPVQLIWTREDDMQHDFYRPGGWHNLTAGLDAKGGLTAWKNHFITFGEGETFNTAAAMNATQFPCRAVANYRHDVSVMPLGFPTGFLRAPGNNAFGFVIQSFTDELALAAGKDPVAFRRELLGEPRLLGEPGKGDSFHTGRMRGVLDLVAEMSGWGRKVPKGTGLGVACHYSHLGYVAVVMQVTVKDGAVKVDKVWAAADVGRQIVNPSGADQQMQGSILDAIGSTLYQSITFENGAATNSNFGDFPLLRMADAPPVEVRYKLSDNNPTGLGEPAYPPAPAALCNAIFAATGKRIRSLPIGDQLA	failed
MDGHSKNHCSPVGRYFPMPLDRRFLPGWLAFLALLAICVFPLMAKAAGVPALVGRVNDYAGMISPQARSIIDQKLKALEAEDGTQVAVLTVPSLDGQPIEEFSIKVAEAWKIGQKGRDNGILFIVSKNDRAMRIEVGYGLEGRLTDLQAGRITRDVIKPAFKSGDYDKGFIDGVDAIVASVKGEYKAPKRKNDDGAPSPFLIFIILFVLFVASRFMRFFGGGGGPFGFGGPGGGFFPGGGFGGGGGSSDDGGFSGGGGDFGGGGASDNW	failed
MDGRRMVQGLLTASLLTSIGGDLEVLASRMDLQFQRPVYTGETLVCELTVVSADPHTDGGVALVGDVAVRRVNRDDNSGQADTAAPLEHHHHHH	failed
MDHAAVLALFDRDMREGARPDGPGARIERVPGVVRQVASEHGWNGVVWSGLDEASADAAIAEQQRYFAGLGREFEWKLYGHDLPEDLGRRLRAAGFTAAPEETLMVAEVADLTLDVEPPDGVRIVPVTDRAGVDLVADVHEKAFGTDSTRMRHQLLAQVTDDPDAVVAVVALAGDEPVSAARMELVPGTRFAGLWGGGTVEGERGRGIYRALVAHRAKVAADRGYRYVQVDATSQSRPVLARLGFEPLTTTTPYVSP	not failed
MDHDKTGCQSPPEGPKLCTNNCGFFGSAATMNMCSKCHKDMLFQQEQGAKFASAVSGTSSSSNIIKETFTAALVDIETKSVEPMTVSVQPSSVQVVAEVVAPEEAAKPKGPSRCTTCNKRVGLTGFKCRCGSLFCGTHRYADVHDCSFNYHAAAQEAIAKANPVVKAEKLDKI	failed
